Experimental findings from PMC10916880 (Molecular Biology of the Cell, 2024) are described below.

For test [1], the target named is microtubules assembled from purified beta-R380C yeast tubulin (Tub1/Tub2-R380C) (yeast, UniProt P09733 1-447; P02557 1-457, R380C). In words: single-molecule TIRF microscopy of kinesin-GFP on surface-attached microtubules.
Test [2] addresses microtubules assembled from purified wildtype yeast tubulin (Tub1/Tub2 heterodimer) (yeast, UniProt P09733 1-447; P02557 1-457). The test is described as above.

B1: truncated mouse Kif21a-917 fused to GFP (domain or fragment, UniProt Q9QXL2 1-917, looked up)
chain: MLGAADESSVRVAVRIRPQLAKEKIEGCHICTSVTPGEPQVFLGKDKAFTFDYVFDIDSQQEQIYTQCIEKLIEGCFEGYNATVFAYGQTGAGKTYTMGTGFDVNIMEEEQGIISRAVRHLFKSIDEKKTSAIKNGLPPPEFKVNAQFLELYNEEVLDLFDTTRDIDAKNKKSNIRIHEDSTGGIYTVGVTTRTVNTEPEMMQCLKLGALSRTTASTQMNVQSSRSHAIFTIHVCQTRVCPQTDAENATDNKLISESSPMNEFETLTAKFHFVDLAGSERLKRTGATGERAKEGISINCGLLALGNVISALGDKSKRATHVPYRDSKLTRLLQDSLGGNSQTIMIACVSPSDRDFMETLNTLKYANRARNIKNKVMVNQDRASQQINALRSEITRLQMELMEYKTGKRIIDEEGVESINDMFHENAMLQTENNNLRVRIKAMQETVDALRARITQLVSEQANQVLARAGEGNEEISNMIHSYIKEIEDLRAKLLESEAVNENLRKNLTRATARSPYFSASSAFSPTILSSDKETIEIIDLAKKDLEKLKRKEKKKKKRLQKLEESGREERSVAGKDDNADTDQEKKEEKGVSEKENNELDVEENQEVSDHEDEEEEEEDEEEEDDIEGEESSDESDSESDEKANYQADLANITCEIAIKQKLIDELENSQKRLQTLKKQYEEKLMMLQHKIRDTQLERDQVLQNLGSVESYSEEKAKKVKCEYEKKLHAMNKELQRLQTAQKEHARLLKNQSQYEKQLKKLQQDVMEMKKTKVRLMKQMKEEQEKARLTESRRNREIAQLKKDQRKRDHQLRLLEAQKRNQEVVLRRKTEEVTALRRQVRPMSDKVAGKVTRKLSSSESPAPDTGSSAASGEADTSRPGTQQKMRIPVARVQALPTPTTNGTRKKYQRKGFTGRVFT
Turning to B1, in test [1], the “increase in binding frequency relative to wildtype microtubules” value stood at 31%; the “increase in plus-end dwell time relative to wildtype microtubules” value was determined as 45%; the “plus-end dwell time relative to wildtype microtubules, high salt” value was approximately 2 fold. In test [2], the “fold increase in binding relative to full-length Kif21a” value is approximately 100 fold.

B2: full-length mouse Kif21a fused to GFP (natural protein, UniProt Q9QXL2 1-1672, looked up)
chain: MLGAADESSVRVAVRIRPQLAKEKIEGCHICTSVTPGEPQVFLGKDKAFTFDYVFDIDSQQEQIYTQCIEKLIEGCFEGYNATVFAYGQTGAGKTYTMGTGFDVNIMEEEQGIISRAVRHLFKSIDEKKTSAIKNGLPPPEFKVNAQFLELYNEEVLDLFDTTRDIDAKNKKSNIRIHEDSTGGIYTVGVTTRTVNTEPEMMQCLKLGALSRTTASTQMNVQSSRSHAIFTIHVCQTRVCPQTDAENATDNKLISESSPMNEFETLTAKFHFVDLAGSERLKRTGATGERAKEGISINCGLLALGNVISALGDKSKRATHVPYRDSKLTRLLQDSLGGNSQTIMIACVSPSDRDFMETLNTLKYANRARNIKNKVMVNQDRASQQINALRSEITRLQMELMEYKTGKRIIDEEGVESINDMFHENAMLQTENNNLRVRIKAMQETVDALRARITQLVSEQANQVLARAGEGNEEISNMIHSYIKEIEDLRAKLLESEAVNENLRKNLTRATARSPYFSASSAFSPTILSSDKETIEIIDLAKKDLEKLKRKEKKKKKRLQKLEESGREERSVAGKDDNADTDQEKKEEKGVSEKENNELDVEENQEVSDHEDEEEEEEDEEEEDDIEGEESSDESDSESDEKANYQADLANITCEIAIKQKLIDELENSQKRLQTLKKQYEEKLMMLQHKIRDTQLERDQVLQNLGSVESYSEEKAKKVKCEYEKKLHAMNKELQRLQTAQKEHARLLKNQSQYEKQLKKLQQDVMEMKKTKVRLMKQMKEEQEKARLTESRRNREIAQLKKDQRKRDHQLRLLEAQKRNQEVVLRRKTEEVTALRRQVRPMSDKVAGKVTRKLSSSESPAPDTGSSAASGEADTSRPGTQQKMRIPVARVQALPTPTTNGTRKKYQRKGFTGRVFTSKTARMKWQLLERRVTDIIMQKMTISNMEADMNRLLRQREELTKRREKLSKRREKIVKESGEGDKSVANIIEEMESLTANIDYINDSIADCQANIMQMEEAKEEGETLDVTAVINACTLTEARYLLDHFLSMGINKGLQAAQKEAQIKVLEGRLKQTEITSATQNQLLFHMLKEKAELNPELDALLGHALQDLDGAPPENEEDSSEEDGPLHSPGSEGSTLSSDLMKLCGEVKPKNKARRRTTTQMELLYADSSEVASDTSAGDASLSGPLAPVAEGQEIGMNTETSGTSARDKELLAPSGLPSKIGSISRQSSLSEKKVPEPSPVTRRKAYEKADKPKAKEHKHSDSGASETSLSPPSSPPSRPRNELNVFNRLTVPQGTPSVQQDKSDESDSSLSEVHRGIINPFPACKGVRASPLQCVHIAEGHTKAVLCVDSTDDLLFTGSKDRTCKVWNLVTGQEIMSLGVHPNNVVSVKYCNYTSLVFTVSTSYIKVWDIRESAKCIRTLTSSGQVTLGEACSASTSRTVAIPSGESQINQIALNPTGTFLYAASGNAVRMWDLKRFQSTGKLTGHLGPVMCLTVDQISNGQDLIITGSKDHYIKMFDVTEGALGTVSPTHNFEPPHYDGIEALAIQGDNLFSGSRDNGIKKWDLAQKGLLQQVPNAHKDWVCALGLVPGHPVLLSGCRGGILKLWNVDTFVPVGEMRGHDSPINAICVNSTHVFTAADDRTVRIWKAHNLQDGQLSDTGDLGEDIASN
Consider B2, for which, in test [1], the “increase in binding frequency relative to wildtype microtubules” value was found to be 29% and the “plus-end dwell time relative to wildtype microtubules” value worked out at 2 fold.
